Measured values: paper PMC6327041 (Nature Communications, 2019)
Where a chain is given by its changes, count along the chain named. Like-named read-outs stand apart in the source and are kept apart here. Each block holds one compound with its values, some of them ahead of it.

Columns and labels:
[1] = molecular target: T1, S287-K347 PHD1 (KDM5A, GST-PHD1) (Homo sapiens, UniProt P29375); assay: Fluorescence polarization binding to PHD1 S287-K347
T1 construct: Expression of GST-PHD1 (Ser287-Lys347); GST (N); made in house; host or cells: E. coli BL21(DE3)
T1 sequence (P29375 287-347): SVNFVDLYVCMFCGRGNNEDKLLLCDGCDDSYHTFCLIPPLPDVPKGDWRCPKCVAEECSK
Description: (§1) All PHD1 constructs used (Val291-[…], S287-K347, and S287-K347 D292A) (Supplementary Figure 1) were cloned into a pET41a vector and expressed in BL21(DE3) E. coli cells. Expression and purification of all mutants followed the same protocol. Specifically, cells were induced with 0.4 mM IPTG and grown at 18 °C overnight before the pellet was collected. The cells were resuspended in lysis buffer (140 mM NaCl, 2.7 mM KCl, 10 mM Na2HPO4, 1.8 mM KH2PO4, 0.5 mM TCEP, 50 µM ZnCl2, 1 mM phenylmethylsulfonyl fluoride (PMSF), pH 7.3), lysed by sonication and centrifuged. The supernatant was purified using Glutathione Sepharose 4B resin, washed with high salt buffer (50 mM HEPES, 700 mM KCl, 10% glycerol, 0.5 mM TCEP, […], 1 mM PMSF, pH 8) and low salt buffer (50 mM HEPES, 150 mM KCl, 10% glycerol, 0.5 mM TCEP, […], 1 mM PMSF, pH 8) and recovered by elution using low salt buffer with 30 mM glutathione. The sample was then concentrated and further purified by size-exclusion chromatography using a Hiload 26/60 Superdex 75 gel filtration column. Samples were eluted into 40 mM HEPES, 50 mM KCl, 0.5 mM TCEP, and […] and flash-frozen.
Data from direct FP measurements were fitted to equation 1: FPobs=FPmaxPHD1+FPminKd/Kd+[PHD1]
Data from competition-based FP assays were fitted to equation 2: FPobs=KiFPmaxPHD1+FPminKd+FPminKd[I]/KiKd+[PHD1]+Kd[I] where FPobs is the observed FP, FPmax is the maximum FP value, FPmin is the minimum FP value, [PHD1] is concentration of PHD1, Kd is the dissociation constant, Ki is the inhibition constant referring to the competing peptide and [I] is the competing peptide concentration.

[2] = molecular target: T2, KDM5A1-797 (Homo sapiens, UniProt P29375); assay: KDM5A demethylation, FDH-coupled formaldehyde release assay; type: biochemical; details: for kcat / Km: 1 μM KDM5A, pH 7.5, room temperature, n ≥ 3, s.e.m.; for Km: read-out: Km
T2 construct: KDM5A1-797 was cloned into a pFASTBAC HTA vector; His (N, cleaved yes); made in house; host or cells: Sf21 insect cells (baculovirus)
T2 sequence (P29375 1-797): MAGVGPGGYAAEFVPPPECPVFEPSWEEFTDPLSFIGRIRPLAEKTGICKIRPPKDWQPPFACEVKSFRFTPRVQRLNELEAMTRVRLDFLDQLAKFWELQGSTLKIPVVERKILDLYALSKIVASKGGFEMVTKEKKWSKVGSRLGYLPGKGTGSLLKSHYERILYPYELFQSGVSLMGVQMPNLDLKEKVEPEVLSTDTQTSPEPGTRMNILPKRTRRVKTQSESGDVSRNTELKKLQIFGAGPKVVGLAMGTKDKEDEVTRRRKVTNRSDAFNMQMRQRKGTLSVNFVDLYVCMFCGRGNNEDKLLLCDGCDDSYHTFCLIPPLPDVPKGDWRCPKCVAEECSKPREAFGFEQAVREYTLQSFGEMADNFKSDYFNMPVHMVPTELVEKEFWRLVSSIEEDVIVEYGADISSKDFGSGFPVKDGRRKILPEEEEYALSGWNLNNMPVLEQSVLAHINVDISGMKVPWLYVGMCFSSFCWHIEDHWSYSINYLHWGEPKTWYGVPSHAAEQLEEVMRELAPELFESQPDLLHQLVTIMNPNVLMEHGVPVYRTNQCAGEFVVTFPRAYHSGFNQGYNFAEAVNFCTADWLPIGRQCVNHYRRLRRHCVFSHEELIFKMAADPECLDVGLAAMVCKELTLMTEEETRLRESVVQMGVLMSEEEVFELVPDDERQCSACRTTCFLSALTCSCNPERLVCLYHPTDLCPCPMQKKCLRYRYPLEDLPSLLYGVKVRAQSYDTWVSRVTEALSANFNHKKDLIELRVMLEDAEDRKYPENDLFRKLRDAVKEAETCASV
Description: WT KDM5A1-797 was expressed in Sf21 cells following Invitrogen Bac-to-Bac baculovirus expression system protocol. KDM5A1-797 was cloned into a pFASTBAC HTA vector. Purified bacmid was transfected in Sf21 cells. Approximately […] cells per well of a six-well dish were allowed to attach in 2 ml of SF-900 II SFM media containing 50 U ml^−1 penicillin and 50 μg ml^−1 streptomycin. While cells attached, 8 μl of Cellfectin II reagent (Invitrogen) in 100 μl of unsupplemented Grace’s medium was mixed with ~2–5 μg of bacmid in 100 μl of unsupplemented Grace’s medium and incubated for 15–30 min at 25 °C. Once cells were attached, media was removed and cells were washed with 2 ml of Grace’s unsupplemented media. The bacmid DNA:Cellfectin mixture was then diluted to 1 ml with Grace’s unsupplemented media and added to the well. Cells with bacmid:Cellfectin II mixture were incubated for 5 h at 27 °C. After 5 h of incubation, bacmid:Cellfectin mixture was removed and replaced with 2 ml of SF-900 II SFM 50 U ml^−1 penicillin and 50 μg ml^−1 streptomycin. Transfected cells were incubated 3–5 days or until signs of viral infection were observed. After transfection, the supernatant was spun down to remove the dead cells. The supernatant was then sterile filtered to obtain the P1 viral stock. To make P2, 20 ml of […] at ~2 × 10^6 cells per ml of sf21 was infected with 2 ml of P1 virus and incubated for 48–60 h. After 56 h, the cells were spun down and the supernatant was collected and sterile filtered to obtain P2 viral stock. Similarly, P3 viral stock from P2 viral stock was obtained. Generally, 1 l of Sf21 at 2 × 10^6 cells per ml was infected with ~40 ml of P3 virus for ~48–56 h. Cells were then collected and resuspended in the lysis buffer (25 mM HEPES pH 7.9, 350 mM NaCl, 5 mM KCl, 1.5 mM MgCl2, 10 mM imidazole, aprotinin 2 μg ml^−1, leupeptin 3 μg ml^−1, pepstatin 3 μg ml^−1, and 1 mM PMSF). Cells were homogenized by emulsiflex. After lysis, the supernatant was recovered by centrifuging at 35k r.p.m. for 45 min, and incubated with cobalt resin equilibrated in lysis buffer for 1 h at 4 °C. After incubation the resin was washed with wash buffer (25 mM HEPES, pH 7.9, 350 mM NaCl, 0.5 mM MgCl2, 10% glycerol, 10 mM imidazole, aprotinin 2 μg ml^−1, leupeptin 3 μg ml^−1, pepstatin 3 μg ml^−1, and 1 mM PMSF). His-KDM5A was eluted with elution buffer (25 mM HEPES pH 7.9, 100 mM NaCl, 0.5 mM MgCl2, 10% glycerol, 100 mM imidazole, aprotinin 2 μg ml^−1, leupeptin 3 μg ml^−1, pepstatin 3 μg ml^−1, and 1 mM PMSF). The His-tag was removed by overnight incubation with TEV protease at 4 °C in the dialysis buffer (25 mM HEPES, pH 7.9, 100 mM NaCl, and 2 mM DTT). After cleavage, protein was further purified by size-exclusion chromatography using a S200 column. Purified KDM5A was eluted, aliquoted and stored at −80 °C in 40 mM HEPES, pH 7.9, 50 mM KCl.
Michaelis–Menten parameters were determined using Graphpad Prism.

[3] = molecular target: T3, S287-K347 PHD1 D292A (KDM5A, GST-PHD1) (Homo sapiens, UniProt P29375, D292A); assay: Fluorescence polarization binding to PHD1 S287-K347 D292A; details: compared to WT PHD1S287-K347
T3 construct: S287-K347, and S287-K347 D292A; GST (N); made in house; host or cells: E. coli BL21(DE3)
T3 sequence (P29375 287-347 D292A): T1 sequence (P29375 287-347) with D6A
Description: as §1
Data from direct FP measurements were fitted to equation 1: FPobs=FPmaxPHD1+FPminKd/Kd+[PHD1] […]

[4] = system: PHD1KDM5B; details: cited from earlier work
Description: This study presents a significant amount of biochemical and biophysical work to reveal the molecular basis underlying the allosteric enhancement in a quantitative manner. […] H ...

binding to PHD1 domain ([1]; FP, at the concentrations used in our assays (Supplementary Figure 3a: Ac-H3K4me2-FAM, PHD1S287-K347)): does not bind to the PHD1 domain | reduction in Km on addition of effector peptide ([2]; 38 µM H3 10mer effector peptide vs none): fivefold | kcat/Km ([2]; +H3 10mer peptide (38 µM)): 25.6 ± 5.7 mM⁻¹ min⁻¹ | kcat ([2]; +H3 10mer peptide (38 µM)): 1.40 ± 0.06 min⁻¹ | Km ([2]; +H3 10mer peptide (38 µM)): 54.7 ± 9.9 µM | kcat/Km ([2]; No effector peptide): 5.88 ± 2.04 mM⁻¹ min⁻¹ | kcat ([2]; No effector peptide): 1.35 ± 0.11 min⁻¹ | Km ([2]; No effector peptide): 229 ± 60 µM
Compound: Ac-H3K4me2 21mer: N-terminally acetylated 21mer H3K4me2 peptide (Ala1-Ala21)

decrease in affinity, D292A vs WT PHD1S287-K347 ([3]; listed as H3 peptide): 7.6 fold | decrease in affinity, D292A vs WT PHD1S287-K347 ([3]; listed as unmodified H3 peptide): approximately eightfold | preference for WT H3 peptide over H3K4A peptide ([1]; ratio of Kd): 2.3 fold
Compound: H3K4me0: C-terminal fluorescently labeled unmodified H3 10mer peptide, affinity by direct FP
decrease in affinity for H3 peptide on mutation of the analogous Asp in KDM5B PHD1 ([4]; PHD1KDM5B Asp mutant vs WT, ref Klein Cell Rep 2014 and Zhang Protein Cell 2014): approximately 6 fold | discrimination of WT H3 over H3K4A peptide ([4]; PHD1KDM5B): 2.5 fold

Kd ([1]; modified H3 10mer N-terminal peptides, competition-based FP, NB = no binding, n ≥ 3, s.e.m., construct not stated in legend, read-out: PHD1 binding Kd (Fig. 4a)): 205 ± 73 µM
Compound: C[C@H](N)C(=O)N[C@@H](C)C(=O)N[C@H](C(=O)N[C@@H](CCCCN)C(=O)N[C@@H](CCC(N)=O)C(=O)N[C@H](C(=O)N[C@@H](C)C(=O)N[C@@H](CCCNC(=N)N)C(=O)N[C@@H](CCCCN)C(=O)N[C@@H](CO)C(=O)O)[C@@H](C)O)[C@@H](C)O [H3R2A]
